Assay [1] deals with human FcRn-eGFP on transduced HeLa cells (human) (UniProt P55899). Briefly: flow cytometry, hFcRn-eGFP HeLa cells, blocks Alexa647-hIgG, pH 6.0. (Flow cytometry measures light scatter and fluorescence of single cells or particles in a stream.)
Assay [2] has the same target. The description is as above. The source holds these as a separate data set.
The target in assay [3] is T1, human FcRn (Biorbyt, cat. no. orb84388) (human, UniProt P55899 24-297; P61769 21-119, limits assumed).
T1 construct: Bought soluble protein; not biotinylated on Biacore chips and ELISA coat; also called hFcRn
Briefly: SPR Biacore, hFcRn immobilised; sample before the stability test (0). The method, then: (§1) The His₆-tagged Z variants were further assessed in terms of preserved binding capacity to FcRn after introduction of alterations in the scaffold, as well as after having been subjected to the stability test, i.e. incubated at 37° C. for 2 weeks. Comparative kinetic constants (kₒₙ and koff) and affinities (KD) were determined using a Biacore 2000 instrument. The target protein human FcRn (Biorbyt, cat. no. orb 84388) was immobilized on the carboxylated dextran layer surface of a CM5 chip (GE Healthcare). The immobilization was performed using amine coupling chemistry according to the manufacturer's protocol and using HBS-EP as running buffer. One flow cell surface on the chip was activated and deactivated for use as blank during analyte injections. The immobilization level of hFcRn on the surface was approximately 750 RU. […] Regeneration by three pulses of HBS-EP followed by 10 min equilibration in running buffer was applied after each analyte injection. Kinetic constants were calculated from the sensorgrams using the Langmuir 1:1 model of the BiaEvaluation software 4.1 (GE Healthcare). Curves of the blank surface were subtracted from the curves of the ligand surfaces and the data from the buffer cycles were subtracted from the data of the test-sample cycles to correct for any drift in signal.
T1 sequence (P55899 24-297 limits assumed, chain 1 of 2): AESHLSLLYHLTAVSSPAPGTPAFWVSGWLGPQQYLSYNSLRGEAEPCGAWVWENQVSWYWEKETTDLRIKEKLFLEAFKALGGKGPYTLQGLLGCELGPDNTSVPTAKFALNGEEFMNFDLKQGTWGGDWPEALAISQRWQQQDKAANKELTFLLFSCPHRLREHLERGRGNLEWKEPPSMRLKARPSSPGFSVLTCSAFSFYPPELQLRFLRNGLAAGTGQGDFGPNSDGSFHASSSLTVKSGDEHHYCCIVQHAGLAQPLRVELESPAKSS
T1 sequence (P61769 21-119 limits assumed, chain 2 of 2): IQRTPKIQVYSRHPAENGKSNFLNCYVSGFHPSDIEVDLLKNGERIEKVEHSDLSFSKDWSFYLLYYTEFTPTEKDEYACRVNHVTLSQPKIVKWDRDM

The target of assay [4] is T1, human FcRn (Biorbyt, cat. no. orb84388). Description: SPR Biacore, hFcRn immobilised; sample after 2 weeks at 37 °C (2 w). As for the experimental part: as §1
The target in assay [5] is T2, human FcRn (Biorbyt, cat. no. orb84388) (human, UniProt P55899 24-297; P61769 21-119, limits assumed).
T2 construct: Bought protein; also called hFcRn
Briefly: ELISA screening; periplasm with the ABD moiety only captured on anti-ABD antibody, biotinylated hFcRn at 2 nM. As for the experimental part:
After washing as described above, 50 μl ImmunoPure TMB substrate (Thermo Scientific, cat. no. 34021) was added to the wells and the plates were treated according to the manufacturer's recommendations.
T2 sequence (P55899 24-297 limits assumed, chain 1 of 2): as the sequence (P55899 24-297 limits assumed, chain 1 of 2) above
T2 sequence (P61769 21-119 limits assumed, chain 2 of 2): as the sequence (P61769 21-119 limits assumed, chain 2 of 2) above
For orientation: ELISA stands for enzyme-linked immunosorbent assay.

The values that follow come from US20190284241A1 (Affibody, published 2019).

Where two headings read alike, the source gives them in different places.

In general, IC50 refers to the concentration that inhibits the measured activity by half. Broadly, the Kd is the concentration at which binding is half-saturated. Lower therefore signals tighter binding. For orientation: koff means the first-order rate constant of dissociation. As usually defined, the kon is the second-order rate constant of association. Low readings indicate slow association, high ones fast association.

Sequence of human FcRn-eGFP on transduced HeLa cells (human) (P55899 24-365, chain 1 of 2): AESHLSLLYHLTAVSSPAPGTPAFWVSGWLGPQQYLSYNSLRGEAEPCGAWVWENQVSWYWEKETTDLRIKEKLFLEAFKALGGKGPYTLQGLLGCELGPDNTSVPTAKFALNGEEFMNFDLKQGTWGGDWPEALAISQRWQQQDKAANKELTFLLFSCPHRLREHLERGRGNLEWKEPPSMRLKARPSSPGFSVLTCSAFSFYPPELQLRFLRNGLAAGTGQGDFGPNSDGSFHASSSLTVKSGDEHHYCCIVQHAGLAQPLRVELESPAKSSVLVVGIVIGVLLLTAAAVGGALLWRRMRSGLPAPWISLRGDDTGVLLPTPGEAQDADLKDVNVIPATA
Sequence of human FcRn-eGFP on transduced HeLa cells (human) (b2m, as listed by the source, chain 2 of 2): as the sequence (P61769 21-119 limits assumed, chain 2 of 2) above

Regarding “Intravenous immunoglobulin (IVIg; Octagam, Octapharma) (antibody)”, the IC50 in assay [1] stood at 170 nM; in assay [2], 150 nM.
On to “Subcutaneous immunoglobulin (SCIg; Gammanorm, Octapharma) (antibody)”, for which the IC50 in assay [1] was 120 nM.

B1: His6-tagged Z17348 (designed binder)
chain: MGSSHHHHHHLQAEAKYAKEQDAAAHEIRWLPNLTFDQRVAFIHKLARQPEQSSELLSEAKKLSESQAPK
In assay [3], B1 yielded a Kd of 5.5 nM, a koff of 0.01 s⁻¹ and a kon of 1.82e+06 M⁻¹ s⁻¹. Further, in assay [4], binding was put at a Kd of 6.3 nM, the koff was found to be 0.00809 s⁻¹ and the kon was found to be 1.28e+06 M⁻¹ s⁻¹.
LAEAKVLANRELDKYGVSDYYKNLINNAKTVEGVKALIDEILAALP (other, Streptococcus strain G148, UniProt P19909 254-299, looked up, domain: GA3) [ABD moiety only (periplasm, negative control)]: the binding result in assay [5] was “no binding (tested: 2 nM)”.
